# Experimental data reported in the DeepSol protein solubility set.
# Experiment: soluble on expression in E. coli; label from the status in PepcDB or PDB records
row,Sequence,soluble on expression in E. coli
1,MSLSFTGLEGTRVLVADDNFTSRAILKEVLESLRFDVTLAESGEEAVDLVQKTAEPFKVVLLDWRMPGLDGLACARHIRQLDLPVRPTILIITAYGREEVLGEIPSEIIDGVLLKPVARSLLLNTILDALPEYSSRPEQESRIIQIDTAQLRQELADTSVLVVEDNKINRQIAKELLEGVGVRVTLAGDGLEALALVENYDFDLIFMDIQMPRMDGLEACRRIRQLQHKKQPPVVAMTAHALAGDRETSLRAGMNDHITKPIDPDELYAALANWIKRNHAEGHHHHHH,soluble
2,MSKKPTSAYVHIPFCTQICYYCDFSKVFIQNQPVDAYLKALIQEFDSYGIRDLKTLYIGGGTPTAITAKQLEYLLNHLERNLNLDDLEEFTIEANPGDLTPEKIAVLQRSAVNRISLGVQTFNNKQLKQIGRSHNEEQIYSTIANLKTAGFHNISIDLIYALPGQTLDQVKENVAKALALDIPHLSLYSLILEHHTVFMNKMRRGKLNLPTEDLEAEMFEYIISEMEANGFEH,not soluble
3,MGHHHHHHSHMMQESGTETKSNGSAIQNGSGGSNHLLECGGLREGRSNGETPAVDIGAADLAHAQQQQQQWHLINHQPSRSPSSWLKRLISSPWELEVLQVPLWGAVAETKMSGPVCQPNPSPF,not soluble
4,MFEKWIGLTLLLNSLAYPCQKVTISFKQYENLLHIHQKGCDNEVMCRTLISIALLESSLGLNNRREKSLKDTSYSMFHITLNTAKKFYPTYSKTLLKFKLLNDVGFAIQLAKQILKENFDYYKQKHPNKSVYQLVEMAIGAYNGGMKHNPNGAYVKKFRCIYSQVRYNE,not soluble
5,MAHHHHHHMSATPPPPPPPSSNASTGYPHTRASPGTYRGAGRGAYSRGPSYQSSGSSPSSSPIYTSGPSRRGGGNTRVRVHTYGFVHADPAASLAAAPPASHTSAPRATPDVATPPLPSASSAASPPLSSISSDVLSSLNASVQESLSGYLYTDAIELAQRLFDLEASYAHLHLLAHCYTVSGATGTAYRLLQHYYPFLELHVTRPRTAGASTSAAGGAAGGVGSGVLPFDARRTWTASYGVHPSQHPFSSGMPSATAAVTFSASSNENNLTSDEFELGYETVDLQSQWDCQYLLGVCCYRTQHYEDGARVLSQLLYVCHQVTTTSSVLRRRLQQLRQQQQQVTVRSDTSEEDDAGVAAAVRATERQLAGLCLRDGGAHFAGALLVGSVREASPAAPDRG,not soluble
6,ERSIGFDGVMYFYSDTEKIRDAAFEAALQDQLEWKIEGLKPYVIPADKTLSDRICREDILRGVTIAANGFYGPQGRRLRLPLKDEDLNRKIQAFDFNGSRITNYEMESSSLAGLAALMGHEAITVCCIIAGRKSEKMNTSYQGSIEGLIDLVLERI,not soluble
7,MRPKVSVALATYNGEKYIEEQLESIIKQTRAPDELVICDDCSNDETINIITKKIKNAHFDVKLVSNDKNIGYVQNFSKALEMSSGDIVFLCDQDDVWLSDKIEFIINKFNTRPDIQLLIHDVDYCKEDLTPIGQTKLQRMESNFDIESDYVVGMATAVRRSFLVHCLPVPSAPEVTHDEWLHDCARVLGCKGIVREVLALYRRHSLNVTAPSRLNVDFVTTRHYFGNESLAFLKLFRMETDLGSPDISPLVQWLDSRKMVLLDNGFSSEDRINTFIQYEEKRLRARNSRQSILRLDRWKRLFPIYDLYRSGGYHYYCGWKSALKDLLRTYALEHHHHHH,soluble
8,MAHHHHHHMPSSSPLLGPVFEVITPRLWVRYLQRYLDVPELLTLSETCWTFFVRCNEEPLWRELCLRPPYIDVQQKLGLFTFRGSWKYTVCAYRAEGAGADRQSSRSSTVVLAQSRSIADASLRFNVLLPRIVSCLQVSGEMSSDDGAAWMSQLRSPCAAGTGAASEVSVGLDNGRDEGAAEATVGAEMSVGAWQENVLGKPYAPTLAVKYLSLSAGAINYFMRDGTFLRPPLHALRQPQHRLVRPHTEFTDYNWYGTCLLDLVPLPQWCTNAQFFATLRWKTSGNTRRLQCCGHATAALDDTGGVRGPSHLPDELRGVPGVVDRRYRLSVDAFQREYEVPNMPVVLTGCIEDWPARDTWQDIHFFHCFASEALRANGRTADGRRFRMSAADYLAYEVATNAEKPMYVFDKAALQRSTALRADYAIPPYFTEDFFSYMTEEDRPDYRWLLVGPDGSGSPFHTDPHGTCAWNAVLSGCKRVTLYPPHVVPPGVEEEWIHSDYYASEPCLRWYRTRGDSMPSGSAVCGTFSKEHAGEAYHGSARELPPVEALVFPGDLVFIPSGWWHQVLNIGHTVAVTHNLCSPLTFPRVVADMNAYADRTVRKRFQCALRRAGRDELAVQLRVPGAKRGVYAGHLL,not soluble
9,AHHHHHHGSYILQKNKGVIRVKDIAKMMRVKPPTVVEALKKLRDKGFVKYEEHEHILLTEKGLEVAKKTYSKHQLLTEFFINILGIPPEIAERDACQFEHYVSEVTVHRIREFISYIQQECPYALKQFLKKVREKDQAVAK,not soluble
10,MESNEDVERLLCQKYPGLAAELQPSGACIIRGVLGSEDTWRRLKLYLPHHPALHGFQLYVQESLEYKLYTSANLKLQDDWLLEDFLDHLPKILPAQKAPTVPKELCREGNIYYDILALYKSNEYCLQVDEACSMIRFSEFTDFEQHYLELKIPSLLLLDHSLPDCVSLGEMLTKSAGNLEEALNLFRKLLEDLRPFYDNFMDIDELCHVLQPSPISSKHKTRLFPLKDRVYLKLTIADPFACIASMSLKIIGPTEEVARLRHVLSDGLSNWDSEMNIHKNLLRMFDLCYFPMPDWSDGPKLDEEDNEELRCNICFAYRLDGGEVPLVSCDNAKCVLKCHAVCLEEWFKTLMDGKTFLEVSFGQCPFCKAKLSTSFAALLND,soluble
11,MNNYDDLPCSIYFKKPTVQEFVDQPRVFEDSEVPAFQEVLQLPQERTKPPVPSTQPIVAAVEVAKKKSCLSAPKPRKEPPSHPALRQKTVAFGKTVNVSQTVEGTSRNSKKVLASTMSAQNTTTTEEQAAENWRDAMKTELQTIRTEIQEETARRQEELNAQNLVKMQELMSNFFQKITIPKQQAIEPVEKDKENFHESPRQSRQQKPASKIASAREVIKRDGVIPPEALTIIEQRLRSDPMFRQQIDNVLADAECDANRAAYSPPPPMSEVRYGSGVNPALMRETLTVERSIRYDNGLASIDSRQWTNERRDNRAPDSYRTYEPDQPCHSLYQKGQSISYYPSEAAGKTTARNNRTGYYVEDSSDHEEDVVVNKRGQNYHEQAVPETPAERERRIREKYARRK,not soluble
12,MNIKLSFISIAFLSLSFNVAANEFEKSQEHYKSVTDLKNKIEILELEKKITELSGEIRNARMPKIDKSAPVLSPQPVVKSSEELQKSIEHIEEELKVELAYLVNNGQQKKYTFNLNGKLITLVNGDFVNGWKFIEDQNKIQFSKGNKVIDVN,not soluble
13,MKVMNIIHDSVVDGEGLRTVVFFAGCPHRCFGCHNPKSWNICNGTEMTVEEIVKEIASNPLTDVTFSGGDPFFQAAEVKKVAKAVKDLKKNLWMYTGYTLEEIQSSQNNDMIELLHYGDVLVDGRFEIGKKDLTLPFRGSSNQRIIRLKELEHHHHHH,soluble
14,MSLSRLILIESNKNTRGTPWISIPVRNGVFEYDFYTDHEKAYELICWDDLLNGCWYPVTFFAENGTVSFTISAIDARPPYRIETLNSLTTALRLFEAEGKDKFSFDELNARRDTLEKYGRFESEAMQALWKKFDQVKDNPEERNKLFRERDRLEESGEAFTKEAKALIKEREQLFRKKVIWETEQASQHPSLVGLFILKMKVENARKDEDVTPYLEAFQKVYASRYPEHPYTREMQMFIDNNQPKTGNRFIDFSAPDLNGNMVQLSEQIRGKVALIDLWASWCGPCRTTSKQLIPIYEKYKDRGFTVIGVAREQNSDIRMREAIRKDGYPWLNLIELNDVQQIWSKYRIPNAAGGTFLVNAQGIILAVNPTAEEVERILQKELEGHHHHHH,not soluble
15,MNDTAGELEFVPLAANDDETVGQWLDLMALAAETGPRAAPPCNVDMVGSLRFAPPATALDDWVVRSGGRVVGALRLALPDGAPTARVDQLLVHPGRRRRGIGRALWAHARELARKHDRTTLTATVVESLPSGPAQDPGPAAFAAAMGAHRSDIPAGTHQWLDLDRHDPLADGVPAVPAGYSLVTWGTITPDEYAVPVSELELSLGAGPVDRAAQEVRTSYARQFETMRVGRGRRAYHTGAVHDATGALAGYTSVSKTTGNPAYALQGMTVVHREHRGHALGTLLKLANLEYVLRHEPEVRLVETANAEDNHPMIAVNAALGFEPYDRWVFWTAEAGPSD,soluble
